For assay [1], the target named is T1, human TIM-3 on CHOK1 stable cell line (CHOK1-hTIM-3) (human, UniProt Q8TDQ0 22-301).
T1 sequence: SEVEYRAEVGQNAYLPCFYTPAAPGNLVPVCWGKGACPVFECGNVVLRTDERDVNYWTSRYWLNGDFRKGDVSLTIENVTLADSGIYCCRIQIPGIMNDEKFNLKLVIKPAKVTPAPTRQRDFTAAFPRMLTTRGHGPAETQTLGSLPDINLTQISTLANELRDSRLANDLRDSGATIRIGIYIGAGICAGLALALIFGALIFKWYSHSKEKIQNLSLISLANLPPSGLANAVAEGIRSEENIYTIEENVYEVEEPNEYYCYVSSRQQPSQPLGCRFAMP
Nature of the assay: FACS, CHOK1-hTIM-3 cells, 0.32 nM antibody. (In flow cytometry, cells or beads pass a laser one at a time.)

The target in assay [2] is T1, human TIM-3 on CHOK1 stable cell line …. Briefly: FACS, CHOK1-hTIM-3 cells, 0.013 nM antibody.
Assay [3] concerns the target T2, human TIM-3 extracellular domain protein with hFc tag (hTIM-3-hFc) (human, UniProt Q8TDQ0 22-200).
T2 construct: not shown: human IgG Fc fragment (hFc) of the pCpC vector
T2 sequence: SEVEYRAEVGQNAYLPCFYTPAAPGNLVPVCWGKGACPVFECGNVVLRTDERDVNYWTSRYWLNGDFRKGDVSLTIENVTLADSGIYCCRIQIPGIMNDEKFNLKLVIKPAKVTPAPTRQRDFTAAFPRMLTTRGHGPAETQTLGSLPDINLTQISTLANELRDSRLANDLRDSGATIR
Nature of the assay: ELISA, coated human TIM-3 ECD protein, 0.0001 nM antibody.

Assay [4] addresses T3, monkey TIM-3 extracellular domain protein with hFc tag (cTIM-3-hFc) (monkey).
T3 construct: not shown: human IgG Fc fragment (hFc) of the pCpC vector
T3 chain: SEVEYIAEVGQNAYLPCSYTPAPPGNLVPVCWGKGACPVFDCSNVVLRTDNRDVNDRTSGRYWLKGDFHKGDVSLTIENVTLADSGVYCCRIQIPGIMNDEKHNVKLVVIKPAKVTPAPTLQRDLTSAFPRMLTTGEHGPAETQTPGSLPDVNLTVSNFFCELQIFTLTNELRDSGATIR
Nature of the assay: ELISA, coated monkey TIM-3 ECD protein, 0.0067 nM antibody. In general terms: In an ELISA, binding on a coated surface is turned into a signal by an enzyme label.

B1: 18D2H2 fully human TIM-3 antibody (human IgG4, kappa) (antibody, V domains shown)
VH: EVQLVESGGDLVQPGGSLRLSCAASGFTFSTYWMTWVRQAPGRGLEWVANIKQDGSAKYYVDSVKGRFTLSRDDAKNSLYLQMNSLRAEDTAVYYCARGSNWFDYWGQGTLVTVSS
VL: ETVMTQSPATLSVSPGERATLSCRANQNVYSNLAWYQQKPGQAPRLLIYDASTRATGFPARFSGSGSGTEFTLTISSLQSEDFAVYYCQQYNNWPLTFGGGTKVEIK
On to B1, for which the Mean fluorescence intensity came to 93.1 in assay [1] and 11.6 in assay [2]. In addition, the OD450 in assay [3] turned out to be 0.08; in assay [4], 0.33.

B2: 34B6D8 fully human TIM-3 antibody (human IgG4, kappa) (antibody, V domains shown)
VH: EVQLVESGGGLVQPGGSLRLSCAASGFTFSTYWMTWVRQAPGKRLEWVANIKQGGGDKYYVDSVKGRFTISTDNAKNSLYLQMNSLRAEDTAVYYCARGSNWFDPWGQGTLVTVSS
VL: EIVMTQSPATLSMSPGERATLSCRASQSVYDNLAWYQQKPGQAPRLLIYGASTRATGIPARFSGSGSGTEFTLTISSLQSEDFALYYCQQYTHWPITFGQGTRLEIK
Turning to B2, the Mean fluorescence intensity in assay [1] was 76.9; in assay [2], 9.2. For the same molecule, the OD450 in assay [3] amounted to 0.09; in assay [4], 0.37.

B3: 39E5H1 fully human TIM-3 antibody (human IgG4, kappa) (antibody, V domains shown)
VH: EVQLVESGGGLVQPGGSLRLSCAASGFTFSSYWMSWVRQAPGKGLEWVANIKRGGSERYYVDSVKGRFTISGDNAKNSVYLQMNSLRAEDTAVYYCARGSNWFDPWGQGTLVTVSS
VL: ETVMTQSPAILSVSPGERATLSCRASQSVYSNLAWYQQKLGQAPRLLIYDASTRATGIPARFSGSGSGTEFTLTISSLQSEDFAVYYCQQYNNWPITFGQGTRLEIK
Take B3: the Mean fluorescence intensity was determined as 73.1 in assay [1] and 9.2 in assay [2]. Besides, the OD450 came out at 0.08 in assay [3] and 0.3 in assay [4].

B4: 7A4F10 fully human TIM-3 antibody (human IgG4, kappa) (antibody, V domains shown)
VH: EVQLLESGGGLVQPGGSLRLSCAASGFTFRTHLISWVRQAPGKGLEWVAAITGSGGSTYYADSVKGRFIISRDNSKNTLFLQMNSLRAEDTAVYYCAKDGGSGSYDDFWGQGTLVTVSS
VL: ETVLTQSPVTLSLSPGERATLSCRASQSVGSYLAWYQQKPGQAPRLLIYDASNRATGIPARFSGSGSGTDFTLTISSLEPEDFAVYYCQQRSNWPPTFGQGTKVEIK
Consider B4, for which the values for the Mean fluorescence intensity in assay [1] and in assay [2] were 90.1 and 9.7, respectively. Further, the results for the OD450 in assay [3] and in assay [4] were 0.08 and 0.18, respectively.

B5: 215A8F2 fully human TIM-3 antibody (human IgG4, kappa) (antibody, V domains shown)
VH: QVQLQQWGAGLLKPSETLSLTCTVYGGSFSGYYWNWIRQPPGKGLEWLGEINHSGSTNYNPSLKRRVTISVDTSKNQFSLKLSSVTAADTAVYYCARVYYYGPFDFWGQGTLVTVSS
VL: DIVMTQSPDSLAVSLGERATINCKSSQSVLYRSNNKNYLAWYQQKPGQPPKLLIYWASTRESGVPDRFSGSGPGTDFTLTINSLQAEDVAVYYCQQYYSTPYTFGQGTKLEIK
For the molecule B5, the Mean fluorescence intensity was determined as 73.6 in assay [1] and 8.2 in assay [2]. Also, the values for the OD450 in assay [3] and in assay [4] were 0.08 and 0.33, respectively.

The values are drawn from patent US20220033501A1 (SHANGHAI PHARMAEXPLORER, published 2022).
